Test: Phosphatase assay (Malachite Green) of purified UppP
Type: biochemical, E. coli
Conditions: 100 μM Fpp as model substrate, 37° C., 0.2% DDM, pH 7.5
Protocol: UppP activity was determined by the Malachite Green assay using Phosphate Colorimetric Assay Kit purchased from BioVision. The enzymatic assay reaction mixture (200 μl) containing 50 mM Tris-HCl, pH 7.5, 150 mM NaCl, 0.2% DDM, 100 μM substrate (Fpp) and appropriately diluted purified UppP was incubated at 37° C. The reaction was quenched by adding 30 μl of Malachite Green Reagent and then the tubes were incubated for 30 min at room temperature. After incubation, the reaction mixture was transferred to 96-well plates and the released phosphate that reacted with Malachite Green was measured at 650 nm according to the reaction time course. The amounts of released phosphate were quantified relative to a phosphate standard curve.
For testing the phosphatase activity of UppP, assays were performed in the presence of various substrates using Malachite Green assay. Since the intended substrate, Upp, was difficult to synthesize and purify (Ghachi et al. Id.), we used farnesyl pyrophosphate (Fpp) as a model substrate. It was previously reported that another E. coli undecaprenyl pyrophosphate phosphatase, PgpB, which has no sequence homology with UppP, catalyzed the dephosphorylation of Upp with a relatively low efficiency compared to diacylglycerol pyrophosphate and farnesyl pyrophosphate lipid substrates. In our activity assay test, Fpp was a suitable substrate for UppP.

B1: UppP: E. coli integral membrane enzyme undecaprenyl pyrophosphate phosphatase purified from the HmBRI/D94N fusion expression system (protein, UniProt P60932 1-273, looked up)
Undecaprenyl-diphosphatase: MSDMHSLLIAAILGVVEGLTEFLPVSSTGHMIIVGHLLGFEGDTAKTFEVVIQLGSILAVVVMFWRRLFGLIGIHFGRPLQHEGESKGRLTLIHILLGMIPAVVLGLLFHDTIKSLFNPINVMYALVVGGLLLIAAECLKPKEPRAPGLDDMTYRQAFMIGCFQCLALWPGFSRSGATISGGMLMGVSRYAASEFSFLLAVPMMMGATALDLYKSWGFLTSGDIPMFAVGFITAFVVALIAIKTFLQLIKRISFIPFAIYRFIVAAAVYVVFF
For B1, the “time-dependent phosphatase activity (released phosphate)” value was “functional protein capable of releasing free phosphate”.
